Consider 6 molecules from publication PMC8622166 (2021).

Where two headings read alike, the source gives them in different places.

The target in test [1] is T1, non-isoprenylated RAC1 full-length (RAC1^FL) (human, UniProt P63000 1-192). In words: kinetic, koff/kon.
For test [2], the target named is T1, non-isoprenylated RAC1 full-length …. In words: stopped-flow.
For test [3] the target is unchanged. In words: FP; mdGDP-bound RAC1.
Test [4] shares this target. In words: kinetic, koff/kon. This is another data set of the same source.
The target is the same in test [5]. Put plainly: FP.
Test [6] shares this target. Put plainly: stopped-flow. The source holds these as a separate data set.

B1: GDI1^ΔC6 (domain or fragment)
chain: MAEQEPTAEQLAQIAAENEEDEHSVNYKPPAQKSIQEIQELDKDDESLRKYKEALLGRVAVSADPNVPNVVVTGLTLVCSSAPGPLELDLTGDLESFKKQSFVLKEGVEYRIKISFRVNREIVSGMKYIQHTYRKGVKIDKTDYMVGSYGPRAEEYEFLTPVEEAPKGMLARGSYSIKSRFTDDDKTDHLSWEWNLTI
One may read the Kd as the equilibrium constant for the complex coming apart. Low values mean tighter binding, high ones weaker binding. A word on the koff: it is the first-order rate constant of dissociation. Low readings indicate a long-lived complex, high ones a short-lived complex. Regarding B1, the Kd in test [1] stood at 21.7 µM; in test [3] it was 29 µM. In test [2], the koff came out at 0.59 s⁻¹.

B2: GDI1^ΔN15 (domain or fragment)
chain: AENEEDEHSVNYKPPAQKSIQEIQELDKDDESLRKYKEALLGRVAVSADPNVPNVVVTGLTLVCSSAPGPLELDLTGDLESFKKQSFVLKEGVEYRIKISFRVNREIVSGMKYIQHTYRKGVKIDKTDYMVGSYGPRAEEYEFLTPVEEAPKGMLARGSYSIKSRFTDDDKTDHLSWEWNLTIKKDWKD
Regarding B2, the Kd in test [1] worked out at 16.8 µM; in test [3] it was 102 µM. Moreover, the koff in test [2] was found to be 0.54 s⁻¹.

B3: GDI1^E121K (natural protein)
chain: MAEQEPTAEQLAQIAAENEEDEHSVNYKPPAQKSIQEIQELDKDDESLRKYKEALLGRVAVSADPNVPNVVVTGLTLVCSSAPGPLELDLTGDLESFKKQSFVLKEGVEYRIKISFRVNRKIVSGMKYIQHTYRKGVKIDKTDYMVGSYGPRAEEYEFLTPVEEAPKGMLARGSYSIKSRFTDDDKTDHLSWEWNLTIKKDWKD
Molecule B3 registered a Kd in test [3] of 14 µM.

B4: GDI1^2E>2K (E163K and E164K) (natural protein)
chain: MAEQEPTAEQLAQIAAENEEDEHSVNYKPPAQKSIQEIQELDKDDESLRKYKEALLGRVAVSADPNVPNVVVTGLTLVCSSAPGPLELDLTGDLESFKKQSFVLKEGVEYRIKISFRVNREIVSGMKYIQHTYRKGVKIDKTDYMVGSYGPRAEEYEFLTPVKKAPKGMLARGSYSIKSRFTDDDKTDHLSWEWNLTIKKDWKD
The molecule B4 gave a Kd in test [3] of 117 µM. Compared with the last molecule, the Kd is about 8.4-fold higher.

B5: GDI1 (RHOGDI1), wild type (natural protein)
chain: MAEQEPTAEQLAQIAAENEEDEHSVNYKPPAQKSIQEIQELDKDDESLRKYKEALLGRVAVSADPNVPNVVVTGLTLVCSSAPGPLELDLTGDLESFKKQSFVLKEGVEYRIKISFRVNREIVSGMKYIQHTYRKGVKIDKTDYMVGSYGPRAEEYEFLTPVEEAPKGMLARGSYSIKSRFTDDDKTDHLSWEWNLTIKKDWKD
Regarding B5, the Kd worked out at 1.03 µM in test [4], 0.96 µM in test [5] and 1.2 µM in test [3]. The same molecule registered a koff in test [6] of 0.34 s⁻¹.

B6: GDI1^ΔN25 (domain or fragment)
chain: NYKPPAQKSIQEIQELDKDDESLRKYKEALLGRVAVSADPNVPNVVVTGLTLVCSSAPGPLELDLTGDLESFKKQSFVLKEGVEYRIKISFRVNREIVSGMKYIQHTYRKGVKIDKTDYMVGSYGPRAEEYEFLTPVEEAPKGMLARGSYSIKSRFTDDDKTDHLSWEWNLTIKKDWKD
B6 showed a Kd in test [3] of 174 µM.
